Test results reported in PMC11804793, “Characterization of a C-methyltransferase from Streptomyces griseoviridis – crystal structure, mechanism, and substrate scope” (Chemical Science, 2025).

Assays:
[1] = target: SAM-dependent indole C3-methyltransferase SgMT from Streptomyces griseoviridis (Streptomyces griseoviridis); experiment: crystal structure; SgMT crystallised in the presence of SAH (cWW included in the sample but not seen); space group P4(1)2(1)2, three protein chains per asymmetric unit; dmin 1.47 Å
SgMT = target: T1, SgMT (Streptomyces griseoviridis, UniProt A0A918GRY4); experiment: X-ray crystallography, […] Å; type: binding; conditions: non-methylated form of the cofactor, co-crystallised; cWW in the sample but not seen in density
T1 construct: gene GCM10010238_52040; C-terminally His-tagged for kinetics, produced in E. coli BL21 (DE3), Ni-NTA purified; dimer; residues before T7 disordered in crystal
T1 sequence (A0A918GRY4 1-269): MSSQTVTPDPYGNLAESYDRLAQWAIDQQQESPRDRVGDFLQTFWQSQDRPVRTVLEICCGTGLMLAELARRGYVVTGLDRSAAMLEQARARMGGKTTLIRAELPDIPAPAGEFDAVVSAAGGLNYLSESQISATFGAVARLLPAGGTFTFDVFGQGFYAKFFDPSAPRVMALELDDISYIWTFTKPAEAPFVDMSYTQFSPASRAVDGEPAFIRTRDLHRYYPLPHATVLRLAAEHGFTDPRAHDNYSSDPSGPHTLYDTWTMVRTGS

[2] = substrate: O=C1N[C@@H](Cc2c[nH]c3ccccc23)C(=O)N[C@H]1Cc1c[nH]c2ccccc12; experiment: MTase Glo luminescence assay (SAH formation), Michaelis-Menten; type: biochemical, Streptomyces griseoviridis; conditions: co-substrate SAM; C-terminally His-tagged enzyme

SAM-dependent indole C3-methyltransferase SgMT from Streptomyces griseoviridis (enzyme)
stoichiometry N [1]: 2

Nc1ncnc2c1ncn2[C@@H]1O[C@H](CSCC[C@H](N)C(=O)O)[C@@H](O)[C@H]1O [SAH]
X-ray crystallography, 1.47 Å (SgMT): we crystallised the protein in the presence of the cofactor (using the non-methylated form, SAH)

B1: SgMT (Streptomyces griseoviridis) (protein)
chain: MSSQTVTPDPYGNLAESYDRLAQWAIDQQQESPRDRVGDFLQTFWQSQDRPVRTVLEICCGTGLMLAELARRGYVVTGLDRSAAMLEQARARMGGKTTLIRAELPDIPAPAGEFDAVVSAAGGLNYLSESQISATFGAVARLLPAGGTFTFDVFGQGFYAKFFDPSAPRVMALELDDISYIWTFTKPAEAPFVDMSYTQFSPASRAVDGEPAFIRTRDLHRYYPLPHATVLRLAAEHGFTDPRAHDNYSSDPSGPHTLYDTWTMVRTGS
notes: C-terminally His-tagged for kinetics, produced in E. coli BL21 (DE3), Ni-NTA purified; dimer; residues before T7 disordered in crystal
Km [2]: 10.53 ± 2.01 µM
kcat [2]: 0.0025 s⁻¹
